How the values were obtained:
[1] = target: T1, K18-biotin hepcidin-25 (biotin on K18); assay: Biacore (SPR); 5 µg/ml 583
T1 peptide: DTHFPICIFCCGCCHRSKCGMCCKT

[2] = target: T2, NT-biotin hepcidin-25 (NT-biotin (biotin label; NT is not spelled out, taken as the N-terminus)); assay: Biacore (SPR); 5 µg/ml 583
T2 peptide: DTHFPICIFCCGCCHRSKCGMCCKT

Ka [1]: 1.34e+11 M⁻¹
Ka [2]: 5.47e+10 M⁻¹
B1: murine anti-hepcidin MAb 583 (antibody, V domains shown)
VH: QIQLVQSGPELKKPGETVKISCKASGYTFTNYGMNWVKQAPGKGLKWMGWINTYTGEPTYADDFKGRFAFSLETSASTAYLQINNLKNEDTATYFCTTYATSWYWGQGTTLTVSS
VL: DIVLTQSPASLAVSLGQRATISCRASESVDSYGNSFMHWYQQKPGQPPKLLIYRASNLESGIPARFSGSGSRTDFTLTINPVEADDVATYYCQQSNEDLTFGGGTKLEIK
